Tests used:
human pDCs = test: IFNα production of pDCs after stimulation with CpG targeted to CD32, AT10 or ScFV from IV.3 (Example 9); format: cell-based; details: CpG without targeting; p<0.04 resp. p<0.02
Procedure: Buffy coats were obtained from healthy volunteers according to institutional guidelines and pDCs were purified by positive isolation using anti-BDCA-4-conjugated magnetic microbeads (Miltenyi Biotec) and cultured in X-VIVO-15 medium (Cambrex) supplemented with 2% of decomplemented human AB+ serum. pDCs purity was routinely up to 95%, as assessed by double staining BDCA-2/CD123 (Miltenyi Biotec) in a FACS.
Subsequently, pDCs were incubated on ice for 15 minutes with either PBA, 5 μg/ml ODN-CpG C (M362, Axorra) in PBA or 5 μg/ml ODN-CpG C-3′-biotin in PBA (M362, Biosearch Technologies). Unbound ODN-CpG C was washed away three time with PBA and pDCs were cultured overnight (37° C., 5% CO2) in X-VIVO-15 medium (Cambrex), supplemented with 2% of decomplemented human AB+ serum. Supernatants were collected from pDC cultures after overnight stimulation, and IFNα production was analyzed with murine monoclonal capture and HRP-conjugated anti-IFNα antibodies (BenderMed systems) using standard ELISA procedures.

pDCS in PBMC = test: IL-6 and TNFα production after stimulation with CpG targeted to CD32 by aCD32a peptide (Example 10); format: cell-based, human; details: CpG without targeting
Procedure: Buffy coats were obtained from the Red Cross Austria. Cells were separated on ficoll hypack.
Freshly isolated PBMC's were incubated with 200 μg/ml aCD32a peptide published by Berntzen et al (J. Biol. Chem. (2009) 284:1126-1135; sequence ADGAWAWVWLTETAVGAAK-biotin, SEQ ID NO:68) in PBA (PBS containing 5% BSA) on ice for 30 minutes and washed twice with PBA, followed by an incubation with 10 μg/ml streptavidin in PBA on ice for 30 minutes and two times washing with PBA. Subsequently, PBMC's were incubated on ice for 15 minutes with either PBA, 5 μg/ml ODN-CpG C (M362, Axorra) in PBA or 5 μg/ml ODN-CpG C-3′-biotin in PBA (M362, Girindus). Unbound ODN-CpG C was washed away three time with PBA and PBMCs were cultured overnight (37° C., 5% CO2) in X-VIVO-15 medium (Cambrex), supplemented with 2% of decomplemented human AB+ serum. Supernatants were collected from PBMC cultures after overnight stimulation, and […] was analyzed with murine monoclonal capture and HRP-conjugated anti-IL-6 or TNF^L antibodies (BenderMed systems) using standard ELISA procedures.

PBMC = test: IFN and IL-4 ELISA in pooled PBMC culture supernatants after immunization with SG100; format: in vivo, rhesus monkey; details: positive control, data not shown; PBMC of SG100-immunized animals
Procedure: 5 healthy house dust mite (HDM) naïve rhesus monkeys were immunized 3× with SG100 (100 μg/shot) absorbed on Alum) on d0, d14 and d28. Blood samples were taken on d0 and d49 for T cell activation and antibody production.
Proliferation: PBMC ([…]) were cultured for 4 days (37° C./5% CO2/99% humidity) in 8 plex with medium, warhead (2 μg/ml), Immunogen (2 μg/ml), Der p1 (2 μg/ml), Der p2 (2 μg/ml), Der p5 (2 μg/ml) and Der p7 (2 μg/ml). As positive control Con A (Concanavaline A, Sigma) was used. Proliferation was measured by [3H]-thymidine (0.5 μCi/well) during the final 18 hrs of a 4 day culture. Cells were harvested for β-scintillation counting (Topcount NXT, Packerd, Ramsey, Minn., USA). Net counts per minutes were calculated by subtracting the counts of the medium control from the counts induced by the different antigens.
From each well of the 8plex stimulations of the proliferation experiment, 50 μl supernatant was taken after 24 h and pooled. The pooled supernatants were tested for the presence of IFN and IL-4 using commercially available ELISA kits from U-Cytech, Utrecht The Netherlands).

mice = test: IgG1 and IgG2a ELISA after s.c. immunization of mice with ScFV-1-coil or warhead; format: in vivo, mouse; details: day 28, s.c. 2x 35 μg d0, d14
Procedure: 24 mice (6/group) were immunized s.c. 2× with 35 μg in 150 μl ScFV-1-coil or with warhead (ScFV-1-coil-M362) either formulated on Alum or diluted in PBS. Immunizations were done on d0, and d14, sera were taken on d0 (before immunization) and d28 and analyzed for IgG1 and IgG2a against ScFV-1-coil (indicated as ScFV) and mAb IV.3 by standard ELISA.

[1] = independent of the presence of Alum

With “TCGTCGTCGTTCGAACGACGTTGAT (chemistry not fully specified) [CpG standard, CpG class C oligodeoxynucleotide, TLR9 agonist, used without targeting]” the “potency of IFNα induction compared to CpG targeted to CD32” value (human pDCs) was “significantly less potent” and the “IL-6 production: times less potent than CpG targeted to CD32” value (pDCS in PBMC) was about 75 times.

For Concanavaline A [Con A], the “IL-4 after stimulation with Con A” value (PBMC) was “IL-4 was seen”.

B1: warhead (conjugate)
scFv: EVQLQQSGPELKKPGETVKISCKASGYTFTNYGMNWVKQAPGKGLKWMGWLNTYTGESIYPDDFKGRFAFSSETSASTAYLQINNLKNEDMATYFCARGDYGYDDPLDYWGQGTSVTVSSGGGGSGGGGSGGGGSDIVMTQAAPSVPVTPGESVSISCRSSKSLLHTNGNTYLHWFLQRPGQSPQLLIYRMSVLASGVPDRFSGSGSGTAFTLSISRVEAEDVGVFYCMQHLEYPLTFGAGTKLELKGSISAWSHPQFEKGPEVSALEKEVSALEKEVSALEKEVSALEKEVSALEK
For B1, the “IgG1 response to ScFV-1-coil” value (mice; [1]) was “strong”, the “IgG1 response to mAb IV.3” value (mice; [1]) was “strong” and the “IgG2 response to ScFV-1-coil” value (mice; [1]) was “strong”. The “IgG2 response to mAb IV.3” value (mice; [1]) was “strong”.

B2: ScFV-1-coil: ScFV derived from mAb IV.3 with pepE coil plus StrepTag II (SEQ ID 93) (protein)
scFv: EVQLQQSGPELKKPGETVKISCKASGYTFTNYGMNWVKQAPGKGLKWMGWLNTYTGESIYPDDFKGRFAFSSETSASTAYLQINNLKNEDMATYFCARGDYGYDDPLDYWGQGTSVTVSSGGGGSGGGGSGGGGSDIVMTQAAPSVPVTPGESVSISCRSSKSLLHTNGNTYLHWFLQRPGQSPQLLIYRMSVLASGVPDRFSGSGSGTAFTLSISRVEAEDVGVFYCMQHLEYPLTFGAGTKLELKGSISAWSHPQFEKGPEVSALEKEVSALEKEVSALEKEVSALEKEVSALEK
modifications: ScFV
B2 was tested, and the IgG2a response (mice; on Alum or in PBS) was “no IgG2a response was induced” and the “IgG1 response against ScFV-1-coil” value (mice; only in the presence of Alum) was “induced an IgG1 response”.
